# Data from the supplement of paper PMC10724198.
# ± gives the standard deviation of the averaged measurements.
# Tested on: Saccharomyces cerevisiae
# Assay: protein stability index of tFT-peptide fusion (C-terminal peptide) (PSI (0-1 scale)); higher = more stable (slower turnover)
# Settings: genetic background: wild type; temperature: 30 C
# Description: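 Multiplexed protein stability (MPS) profiling in S. cerevisiae. Random 12-aa peptides (tFT-X12 library) are fused to the C-terminus of a sfGFP-mCherry tandem fluorescent timer, after mCherry and a GGGS linker. Cells are FACS-sorted into 8 mCherry/sfGFP bins and deep-sequenced. The protein stability index (PSI) is the read-weighted bin average, scaled from 0 (unstable) to 1 (stable). Only peptides with >10 reads are reported; cells were grown at 30 °C in SC-His with glucose.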
# 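Further: PSI is a weighted mean of sequencing reads over stability bins, variants kept only with over 10 reads, mCherry proximal and sfGFP distal, peptide attached via GGGS linker.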
row,Sequence,protein stability index
1,ARAPPSSYPPSG,0.66 ± 0.012
2,AREGSRGVDVGV,0.629 ± 0.01
3,ARGPCRGSGSFG,0.631 ± 0.044
4,ARKRRRRGHDTE,0.725 ± 0.19
5,ARLATLSPEMAN,0.729 ± 0.082
6,ARLPSSRLDLSP,0.686 ± 0.056
7,ARPAPPDNVHRN,0.626 ± 0.069
8,ARPGSVIAQLRV,0.598 ± 0.031
9,ARPPPPPRSSPL,0.747 ± 0.072
10,ARRGGRKRPGAV,0.631 ± 0.056
11,ARSQGEKGGDVV,0.692 ± 0.0072
12,ARSVHGSLSLVM,0.633 ± 0.042
13,ARTADPAATPST,0.687 ± 0.02
14,ARTIVLGAGSGT,0.654 ± 0.084
15,ARVDGGGVRTDV,0.7511 ± 0.0069
16,ASALIFTPPSFL,0.686 ± 0.12
17,ASFHPIAPVSTP,0.6862 ± 0.0011
18,ASFSLSPFLPFS,0.6854 ± 0.0068
19,ASFVPPYLPSSM,0.75 ± 0.17
20,ASIPAPRLTPRA,0.681 ± 0.048
21,ASLAACSLTNSV,0.697 ± 0.053
22,ASLLSCSLLPPV,0.765 ± 0.08
23,ASNVHSSTARFI,0.687 ± 0.082
24,ASPLTIHSPNLL,0.725 ± 0.064
25,ASPSKVSGLNID,0.785 ± 0.097
26,ASRCEVGVRWGG,0.683 ± 0.025

row,Sequence,protein stability index
1,ASRKRKVAQESR,0.688 ± 0.03
2,ASRWVLLGGGGV,0.693 ± 0.03
3,ASSDLQDSPIGD,0.665 ± 0.019
4,ASSHDNPEEVST,0.6298 ± 0.002
5,ASTMAVLDYAPA,0.621 ± 0.0083
6,ASTTNLGNPFKA,0.654 ± 0.038
7,ASVLFILAIPDL,0.565 ± 0.039
8,ASVRPCSCSGRQ,0.715 ± 0.069
9,ATCSILPSRLSI,0.6124 ± 0.0011
10,ATHPPPPPLPPI,0.648 ± 0.068
11,ATLIGIPPSLSA,0.6643 ± 0.00067
12,ATQPPPPPLPPI,0.636 ± 0.052
13,ATQTGFGGGGPM,0.689 ± 0.013
14,ATSRGFLQNLMA,0.55737 ± 0.00018
15,ATVGVGSLLVKY,0.747 ± 0.05
16,AVGGDGGAWVGP,0.7231 ± 0.0022
17,AVGGGTPGGVSG,0.667 ± 0.012
18,AVGTYFSPVVLL,0.65 ± 0.016
19,AVNEHVPILFLL,0.62 ± 0.073
20,AVRRRGGLSVGV,0.654 ± 0.036
21,AVSCGLGAGSSA,0.645 ± 0.039
22,AVTWSRPRSARM,0.736 ± 0.0041
23,AVVVGGGGWWWA,0.801 ± 0.12
24,AVWSLMRCREFV,0.652 ± 0.028
25,AVYSACSRVGWV,0.6937 ± 0.0061
26,AWGELGAGVFGL,0.68 ± 0.049

row,Sequence,protein stability index
1,AWLAQIKLGWGL,0.68 ± 0.016
2,AYCVPPAFPFPL,0.627 ± 0.044
3,AYNFMTSVVPGK,0.744 ± 0.056
4,AYRLAFYGCVMR,0.514 ± 0.02
5,AYSNVFLDPTPV,0.69 ± 0.0097
6,CAASLSHKSAPY,0.768 ± 0.1
7,CACYILHGRSNP,0.684 ± 0.081
8,CAEFLFSTVLYP,0.735 ± 0.049
9,CCCELNTEIVQT,0.682 ± 0.059
10,CCCVLMTFTSSP,0.561 ± 0.044
11,CCFVLDLSASLL,0.625 ± 0.076
12,CCKRWICLLRRK,0.646 ± 0.012
13,CCLFCLLWSLLY,0.64 ± 0.0067
14,CDRVAQWTYPDA,0.783 ± 0.084
15,CEEQQPGFKPLL,0.706 ± 0.04
16,CEERGLLPTQYS,0.6686 ± 0.006
17,CEGERRTLSVKP,0.666 ± 0.033
18,CEHRTPLMFKRG,0.686 ± 0.048
19,CEKGLFLRSAYV,0.65 ± 0.034
20,CEVCRGSDRCDV,0.609 ± 0.015
21,CEYPWGTVVRDG,0.709 ± 0.045
22,CFCVRTGCSVGV,0.663 ± 0.016
23,CFFNAASHSTYE,0.7032 ± 0.0049
24,CFHIFRKSNMNN,0.726 ± 0.11
25,CFLLSSFSLPRS,0.705 ± 0.0078
26,CFLSAVFISSSL,0.601 ± 0.045

row,Sequence,protein stability index
1,CFRGGLLSESVV,0.6714 ± 0.0011
2,CFRPFSARVVVL,0.565 ± 0.016
3,CFSPAAPLLLPG,0.689 ± 0.025
4,CGACGFGLGVWV,0.701 ± 0.021
5,CGFALFLCDGFV,0.744 ± 0.083
6,CGGRPPADLRLS,0.69 ± 0.054
7,CGHVRSLAMAHN,0.68 ± 0.019
8,CGLGVRGRLVLS,0.625 ± 0.026
9,CGLRRRAGGGGV,0.7 ± 0.024
10,CGLSLRVICLEV,0.497 ± 0.02
11,CGRVWAENGSQG,0.689 ± 0.008
12,CGSGWDRSVGIG,0.531 ± 0.027
13,CGSHNRGLSSQL,0.676 ± 0.022
14,CGVGGVRCGLLG,0.667 ± 0.029
15,CGVGWGMGEGWR,0.6956 ± 0.00081
16,CGVRQVGEIAVA,0.526 ± 0.022
17,CGWASSWHSGLH,0.6874 ± 0.00071
18,CGWCCVVCSCLV,0.602 ± 0.06
19,CGWMVSAGRLGG,0.655 ± 0.022
20,CHALPPLLPDPL,0.715 ± 0.028
21,CIARPSGNRSYL,0.714 ± 0.069
22,CINDSEYHSTMF,0.741 ± 0.043
23,CIRSSSTEPCLP,0.685 ± 0.00086
24,CIYPYSSLLMRI,0.532 ± 0.028
25,CKGIGLGGGVVS,0.599 ± 0.033
26,CKRDENKKIILR,0.727 ± 0.014

row,Sequence,protein stability index
1,CLAAPIQDGGLT,0.684 ± 0.086
2,CLAIWSNLNECH,0.715 ± 0.034
3,CLARPVFFSFIG,0.559 ± 0.029
4,CLATAMARSQRE,0.683 ± 0.024
5,CLCCTSFPPPFP,0.673 ± 0.057
6,CLCPPPPLPVPR,0.699 ± 0.092
7,CLLLSLRVPPFS,0.638 ± 0.012
8,CLPHYSQVLLNW,0.715 ± 0.098
9,CLPPSPASFHPL,0.65 ± 0.056
10,CLPSQSAESLTF,0.664 ± 0.02
11,CLSPAFGCWWIV,0.582 ± 0.11
12,CNGRREAGHVDM,0.624 ± 0.13
13,CPALPPAPLSPL,0.725 ± 0.018
14,CPCRCLGFRWCF,0.631 ± 0.076
15,CPFLSISSNCSM,0.667 ± 0.027
16,CPGGQVECGVLC,0.652 ± 0.021
17,CPHSLDTFVSKF,0.704 ± 0.066
18,CPNLWSRFASRC,0.716 ± 0.0085
19,CPPLSPPLLLLL,0.667 ± 0.017
20,CPRRGSHLARLL,0.621 ± 0.038
21,CPSFTSVLPSVP,0.678 ± 0.036
22,CPSHPDCFPDRL,0.6792 ± 0.0039
23,CPSRCGLRAPYL,0.706 ± 0.017
24,CPTLSSHLLFPS,0.659 ± 0.087
25,CQPTTTCTGGNV,0.693 ± 0.035
26,CRFPFRILHPPF,0.68957 ± 0.00018

row,Sequence,protein stability index
1,CRFYKYIRNMFR,0.674 ± 0.074
2,CRGGRHFSREKF,0.723 ± 0.036
3,CRGWWRPGLGVT,0.64 ± 0.015
4,CRILRPITLRFR,0.528 ± 0.013
5,CRLRHPFPLSTR,0.644 ± 0.052
6,CRLSCRSVDAST,0.662 ± 0.022
7,CRLTAWDESGSG,0.673 ± 0.025
8,CRPAASCLPPER,0.6684 ± 0.0066
9,CRRLSICPILFL,0.607 ± 0.0062
10,CRRRGPWDRRSR,0.624 ± 0.014
11,CRRRNRLLLFRK,0.697 ± 0.037
12,CRSCFGGGVRFV,0.743 ± 0.076
13,CRTTDFQCTIGN,0.683 ± 0.0087
14,CRVALSRGVSLV,0.65 ± 0.0094
15,CRVVRPSLEPQV,0.697 ± 0.02
16,CRWLLWVDGWRV,0.5838 ± 0.0043
17,CSAESASPAERY,0.6541 ± 0.0013
18,CSHSLVLRFCPF,0.607 ± 0.059
19,CSLLCKCHLRRL,0.712 ± 0.1
20,CSLLFFFLLSFG,0.521 ± 0.021
21,CSLWVLKLFLGV,0.544 ± 0.012
22,CSPRPPPRSLHP,0.812 ± 0.024
23,CSPSPARPPPPR,0.684 ± 0.013
24,CSRGVVLFLGFL,0.586 ± 0.016
25,CSRPPFLLFVSP,0.702 ± 0.0076
